T1: VEGF-165 (VEGF-A) (Homo sapiens)
T1 chain: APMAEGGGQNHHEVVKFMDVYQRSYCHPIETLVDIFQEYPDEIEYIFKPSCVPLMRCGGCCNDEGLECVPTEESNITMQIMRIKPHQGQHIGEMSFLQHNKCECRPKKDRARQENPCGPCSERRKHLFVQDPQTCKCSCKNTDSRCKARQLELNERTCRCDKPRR


Columns and labels:
VEGF-121 (VEGF-A) = VEGF-121 (VEGF-A) (Homo sapiens, UniProt P15692 SEQ:1-121); test: flow; PBSMCT, 37 C; settings: tags: recombinant; chain copies: 2; label: biotin
VEGF-165 (VEGF-A) [1] = target: T1, VEGF-165 (VEGF-A); test: flow; PBSMCT, 37 C; settings: tags: recombinant; chain copies: 2; label: biotin
VEGF-165 (VEGF-A) [2] = target: T1, VEGF-165 (VEGF-A); test: flow; settings: tags: recombinant; chain copies: 2
Angiopoietin-2 (Ang2) = Angiopoietin-2 (Ang2) (Homo sapiens, UniProt O15123 O15123:19-496); test: flow; settings: tags: His tag; R&D Systems 623-AN
Angiopoietin-2 (Ang2), sequence (O15123 19-496, one chain of several): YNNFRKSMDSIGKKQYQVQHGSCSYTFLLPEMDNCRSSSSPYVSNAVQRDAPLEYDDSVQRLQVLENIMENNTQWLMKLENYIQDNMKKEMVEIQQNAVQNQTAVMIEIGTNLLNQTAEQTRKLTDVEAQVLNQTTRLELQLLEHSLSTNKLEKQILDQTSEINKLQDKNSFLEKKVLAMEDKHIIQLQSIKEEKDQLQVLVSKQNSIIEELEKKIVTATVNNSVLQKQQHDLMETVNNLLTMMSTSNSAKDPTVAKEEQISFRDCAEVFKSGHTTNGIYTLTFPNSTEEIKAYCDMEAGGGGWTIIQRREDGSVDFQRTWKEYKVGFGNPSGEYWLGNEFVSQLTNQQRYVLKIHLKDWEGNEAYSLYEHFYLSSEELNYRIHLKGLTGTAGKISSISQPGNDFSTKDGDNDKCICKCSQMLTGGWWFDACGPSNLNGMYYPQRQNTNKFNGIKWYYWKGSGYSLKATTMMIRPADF

Row | Binder | Kd (VEGF-121 (VEGF-A)) [nM] | Kd (VEGF-165 (VEGF-A) [1]) [nM] | Kd (VEGF-165 (VEGF-A) [2]) [nM] | Kd (Angiopoietin-2 (Ang2)) [nM]
1 | AMS0433.5 (ssRNA, 2'-F all nucleotides) RNA: CACCAUGCUUGCGUAGCAUCAUCCAGUGAGUCGGAUCUCCGCAUAUCUGCG | 1.19 | 0.739 |  | 
2 | CCCCAUCUGCGAAGCAGUCAGCCAGUGAGUCGGAUCUCCGCAUAUCUGCG (ssRNA, 2'-F all nucleotides) [AMS0433.6] | 0.898 | 0.674 |  | 
3 | CACAGAGAACUGUGUGCCAGUGAGUCGGAUCUCCGCAUAUCUGCG (ssRNA, 2'-F all nucleotides) [AMS0433.7] | 13.8 | 9.76 |  | 
4 | CGUAGCAUUUUGCCAGUGAGUCGGAUCUCCGCAUAUCUGCG (ssRNA, 2'-F all nucleotides) [AMS0433.8] | 11 | 8.2 |  | 
5 | AMS0433.1 (ssRNA, 2'-F all nucleotides) RNA: ACCCUUGCUUGCGUAGCAUUUUACCAGUGAGUCGGAUCUCCGCAUAUCUGCG | 1.12 | 0.666 |  | 
6 | UGCCAGUGAGUCGGAUCUCCUGUGAGAACACAG (ssRNA, 2'-F all nucleotides) [AMS0433.10] | 11.4 | 8.47 |  | 
7 | AMS0433.11 (ssRNA, 2'-F all nucleotides) RNA: CACAGAGAACUGUGCCUAGCAUUUUGCCAGUGAGUCGGAUCUCCGCAUAUCUGCG | 23.2 | 16.4 |  | 
8 | AMS0433.13 (ssRNA, 2'-F all nucleotides) RNA: UUUUGUGCUUGCGUAGCAACCCUCCAGUGAGUCGGAUCUCCGCAUAUCUGCG | 9.47 | 8.3 |  | 
9 | ACCCUUGCUUGCGUAGCAUUUUACCAGUGAGUCGGAUCUCUGCAUGCA (ssRNA, 2'-F all nucleotides) [AMS0433.15] | 9 | 7.34 |  | 
10 | UUUUACCAGUGAGUCGGAUCUCUGCAUGCA (ssRNA, 2'-F all nucleotides) [AMS0433.16] | 10.4 | 6.65 |  | 
11 | UGCACUGCAUUUUACCAGUGAGUCGGAUCUCCGCAUAUCUGCG (ssRNA, 2'-F all nucleotides) [AMS0433.17] | 0.475 | 0.359 |  | 
12 | UGCAUCUGCAUUUUACCAGUGAGUCGGAUCUCCGCAUAUCUGCG (ssRNA, 2'-F all nucleotides) [AMS0433.18] | 5.73 | 3.81 |  | 
13 | CUGUACAGUUUUACCAGUGAGUCGGAUCUCCGCAUAUCUGCG (ssRNA, 2'-F all nucleotides) [AMS0433.19] | 0.162 | 0.097 |  | 
14 | UGCCAGUGAGUCGGAUCUCCGCAUAUCUGCGCGCAUAUCUGCG (ssRNA, 2'-F all nucleotides) [AMS0433.2] | 11.4 | 8.42 |  | 
15 | UUUUGCAUGCAUUUUACCAGUGAGUCGGAUCUCCGCAUAUCUGCG (ssRNA, 2'-F all nucleotides) [AMS0433.20] | 0.045 | 0.039 |  | 
16 | GCUGUACAGCUUUUACCAGUGAGUCGGAUCUCCGCAUAUCUGCG (ssRNA, 2'-F all nucleotides) [AMS0433.21] | 0.15 | 0.131 |  | 
17 | AMSB107.0 (ssRNA, 2'-F all nucleotides) RNA: ACCCUUGCUUGCGUAGCAUUUUACCAGUGAGUCGGAUCUCCGCAUAGAUAAGCCAACAAACGUACAUUCUCUGUUAGUAUUUUCUGCG |  |  | 1.29 | 0.222
18 | AMSB108.0 (ssRNA, 2'-F all nucleotides) RNA: CGCAUAGAUAAGCCAACAAACGUACAUUCUCUGUUAGUAUUUUCUGCGUGCCAGUGAGUCGGAUCUCCACAGUUCUCUGUG |  |  | 15.7 | 0.52
19 | AMSB107.1 (ssRNA, 2'-F all nucleotides) RNA: UGCCAGUGAGUCGGAUCUCCGCAUAGAUAAGCCAACAAACGUACAUUCUCUGUUAGUAUUUUCUGCG |  |  | 13.9 | 0.885
20 | AMSB107.2 (ssRNA, 2'-F all nucleotides) RNA: UGCCAGUGAGUCGGAUCUCCACAGUAGAUAAGCCAACAAACGUACAUUCUCUGUUAGUAUUUUCCUGUG |  |  | 12.9 | 0.82

Reference: patent US20230095004 (Aptitude Medical Systems, Inc., published 2023)
